Reference: the supplement of paper PMC7877785
± gives the uncertainty stated by the source.

Test: self-splicing fitness, log relative to wild type (ln ratio); higher = more splicing; Tetrahymena group I intron in knt gene, E. coli kanamycin selection, DiMSum; sequences stand for … in CUCUCU…GGAGGGAAAAGUUAUCAGGCAUGCACCUGGUAGCUAGUCUUUAAACCAAUAGAUUGCAUCGGUUUAAAAGGCAAGACCGUCAAAUUGCGGGAAAGGGGUCAACAGCCGUUCAGUACCAAGUCUCAGGGGAAACUUUGAGAUGGCCUUGCAAAGGGUAUGGUAAUAAGCUGACGGACAUGGUCCUAACCACGCAGCCAAGUCCUAAGUCAACAGAUCUUCUGUUGAUAUGGAUGCAGUUCACAGACUAAAUGUCGGUCGGGGAAGAUGUAUUCUUCUCAUAAGAUAUAGUCGGACCUCUCCUUAAUGGGAGCUAGCGGAUGAAGUGAUGCAACACUGGAGCCGCUGGGAACUAAUUUGUAUGCGAAAGUAUAUUGAUUAGUUUUGGAGUACUCGUGGUCG
How it was run: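 Six replicate transformations of E. coli BL21(DE3) with a pET-22b(+) library were grown overnight at 37°C or 30°C. The library randomised all eight P1ex-region intron nucleotides, the intron lying in the knt kanamycin-resistance gene, and plates were LB agar with or without 25 μg/mL kanamycin plus 100 μg/mL carbenicillin, 50 μM IPTG and 0.2% rhamnose. Pooled colonies were amplicon-sequenced on an Illumina HiSeq 2500, and fitness is the DiMSum error-weighted combination of wild-type-normalised replicate fold changes, kanamycin versus none.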

| Sequence | self-splicing fitness (ln) (30 °C) | self-splicing fitness (ln) (37 °C) |
| --- | --- | --- |
| ACUAAGCAAUAUUACGCGUA | -1.2 ± 0.11 | -0.501 ± 0.13 |
| ACUAAGCAAUAUUACGGAUG | -2.49 ± 0.12 | -1.42 ± 0.13 |
| ACUAAGCAAUAUUACGGCUC | -0.0701 ± 0.093 | 0.329 ± 0.11 |
| ACUAAGCAAUAUUACGGUGG | -3.1 ± 0.11 | -2.84 ± 0.16 |
| ACUAAGCAAUAUUACGUAAA | -2.48 ± 0.13 | -1.6 ± 0.14 |
| ACUAAGCAAUAUUACGUACC | -1.05 ± 0.16 | -0.715 ± 0.2 |
| ACUAAGCAAUAUUACGUAGA | -3.25 ± 0.12 | -1.28 ± 0.1 |
| ACUAAGCAAUAUUACGUCUC | -2.79 ± 0.16 | -0.208 ± 0.14 |
| ACUAAGCAAUAUUACGUUAC | -3.81 ± 0.2 | -3.08 ± 0.3 |
| ACUAAGCAAUAUUACGUUCU | -0.391 ± 0.071 | -0.412 ± 0.094 |
| ACUAAGCAAUAUUACGUUGC | -3.69 ± 0.27 | -2.77 ± 0.22 |
| ACUCAGCAAUAUUACGAUUC | -1.63 ± 0.087 | -0.302 ± 0.1 |
| ACUCAGCAAUAUUACGCAAU | -1.37 ± 0.078 | -0.643 ± 0.093 |
| ACUCAGCAAUAUUACGCACC | -1.19 ± 0.094 | 0.495 ± 0.11 |
| ACUCAGCAAUAUUACGCAGG | -1.99 ± 0.11 | -1.35 ± 0.13 |
| ACUCAGCAAUAUUACGCCCG | -1.62 ± 0.14 | -0.599 ± 0.18 |
| ACUCAGCAAUAUUACGCCGG | -0.85 ± 0.074 | -0.683 ± 0.092 |
| ACUCAGCAAUAUUACGCUAA | -1.63 ± 0.1 | -0.781 ± 0.1 |
| ACUCAGCAAUAUUACGGAAU | -1.75 ± 0.084 | -0.549 ± 0.11 |
| ACUCAGCAAUAUUACGGACG | -0.251 ± 0.069 | -0.156 ± 0.09 |
| ACUCAGCAAUAUUACGGAGC | -3.55 ± 0.21 | -1.76 ± 0.17 |
| ACUCAGCAAUAUUACGGCUG | -2.36 ± 0.21 | -2.86 ± 0.29 |
| ACUCAGCAAUAUUACGGGAA | -0.98 ± 0.088 | -0.568 ± 0.095 |
| ACUCAGCAAUAUUACGGGCA | -0.259 ± 0.063 | 0.203 ± 0.084 |

| Sequence | self-splicing fitness (ln) (30 °C) | self-splicing fitness (ln) (37 °C) |
| --- | --- | --- |
| ACUCAGCAAUAUUACGGGGA | -1.24 ± 0.074 | -0.173 ± 0.082 |
| ACUCAGCAAUAUUACGGGGG | -1.68 ± 0.11 | -1.45 ± 0.14 |
| ACUCAGCAAUAUUACGGGGU | -3.84 ± 0.19 | -2.84 ± 0.2 |
| ACUCAGCAAUAUUACGGGUC | -2.95 ± 0.16 | -2.2 ± 0.17 |
| ACUCAGCAAUAUUACGGGUG | -1.42 ± 0.063 | -0.563 ± 0.077 |
| ACUCAGCAAUAUUACGGUCU | -0.745 ± 0.057 | 0.311 ± 0.079 |
| ACUCAGCAAUAUUACGGUGC | -1.69 ± 0.07 | -0.59 ± 0.082 |
| ACUCAGCAAUAUUACGUACU | -0.824 ± 0.056 | -0.927 ± 0.063 |
| ACUCAGCAAUAUUACGUAGG | -0.866 ± 0.06 | -0.368 ± 0.092 |
| ACUCAGCAAUAUUACGUCCA | -0.69 ± 0.084 | -1.36 ± 0.11 |
| ACUCAGCAAUAUUACGUGCU | -2.27 ± 0.082 | -2.53 ± 0.11 |
| ACUCAGCAAUAUUACGUGUG | -1.39 ± 0.061 | -1.3 ± 0.072 |
| ACUCAGCAAUAUUACGUUCU | -0.967 ± 0.079 | -0.242 ± 0.074 |
| ACUGAGCAAUAUUACGAACU | -1.92 ± 0.13 | -1.24 ± 0.16 |
| ACUGAGCAAUAUUACGAUAC | -1.07 ± 0.29 | -1.96 ± 0.33 |
| ACUGAGCAAUAUUACGCCUA | -2.23 ± 0.17 | -1.42 ± 0.18 |
| ACUGAGCAAUAUUACGCUUA | -3.12 ± 0.38 | -1.88 ± 0.2 |
| ACUGAGCAAUAUUACGGCAC | -3.97 ± 0.37 | -2.6 ± 0.29 |
| ACUGAGCAAUAUUACGGCCU | -2.58 ± 0.23 | -2.12 ± 0.25 |
| ACUGAGCAAUAUUACGGGAC | – | -1.43 ± 0.28 |
| ACUGAGCAAUAUUACGGGCC | -2.33 ± 0.38 | -2.51 ± 0.23 |
| ACUGAGCAAUAUUACGGUAC | -3.19 ± 0.48 | – |
| ACUGAGCAAUAUUACGGUGG | -3.61 ± 0.16 | -2.37 ± 0.18 |
| ACUGAGCAAUAUUACGGUUC | -3.46 ± 0.19 | -2.08 ± 0.21 |

| Sequence | self-splicing fitness (ln) (30 °C) | self-splicing fitness (ln) (37 °C) |
| --- | --- | --- |
| ACUGAGCAAUAUUACGGUUU | -3.46 ± 0.17 | -2.6 ± 0.11 |
| ACUGAGCAAUAUUACGUAAA | – | -2.33 ± 0.24 |
| ACUGAGCAAUAUUACGUAAU | -3.47 ± 0.23 | -2.23 ± 0.22 |
| ACUGAGCAAUAUUACGUCAC | -3.38 ± 0.17 | -2.75 ± 0.21 |
| ACUGAGCAAUAUUACGUCAG | -2.94 ± 0.2 | -2.21 ± 0.19 |
| ACUGAGCAAUAUUACGUGUC | -2.31 ± 0.25 | -2.62 ± 0.28 |
| ACUGAGCAAUAUUACGUGUG | -2.22 ± 0.11 | -2.13 ± 0.16 |
| ACUGAGCAAUAUUACGUGUU | -4.1 ± 0.15 | -2.25 ± 0.11 |
| ACUGAGCAAUAUUACGUUAU | -3.12 ± 0.15 | -2.89 ± 0.2 |
| ACUUAGCAAUAUUACGAAAU | -3.03 ± 0.23 | -1.23 ± 0.2 |
| ACUUAGCAAUAUUACGACCU | -0.101 ± 0.16 | -0.219 ± 0.2 |
| ACUUAGCAAUAUUACGACUU | -0.0888 ± 0.085 | -0.156 ± 0.1 |
| ACUUAGCAAUAUUACGAGGA | -1.87 ± 0.16 | -1.66 ± 0.23 |
| ACUUAGCAAUAUUACGAUGA | -0.609 ± 0.094 | -1.2 ± 0.1 |
| ACUUAGCAAUAUUACGCCGA | -2.94 ± 0.21 | -1.35 ± 0.15 |
| ACUUAGCAAUAUUACGCCGU | -2.28 ± 0.24 | -1.11 ± 0.23 |
| ACUUAGCAAUAUUACGCGAC | -2.91 ± 0.13 | -2.06 ± 0.17 |
| ACUUAGCAAUAUUACGCUAG | -2.35 ± 0.11 | -1.72 ± 0.12 |
| ACUUAGCAAUAUUACGGAAA | -2.19 ± 0.27 | -2.09 ± 0.26 |
| ACUUAGCAAUAUUACGGAAU | -2.99 ± 0.17 | -2.13 ± 0.2 |
| ACUUAGCAAUAUUACGGACG | -1.59 ± 0.1 | -0.553 ± 0.12 |
| ACUUAGCAAUAUUACGGCAC | -1.79 ± 0.11 | -1.07 ± 0.14 |
| ACUUAGCAAUAUUACGGCCC | -1.01 ± 0.34 | -0.451 ± 0.29 |
| ACUUAGCAAUAUUACGGCGC | -0.406 ± 0.11 | 0.119 ± 0.15 |

| Sequence | self-splicing fitness (ln) (30 °C) | self-splicing fitness (ln) (37 °C) |
| --- | --- | --- |
| ACUUAGCAAUAUUACGGCUG | -1.32 ± 0.062 | -0.174 ± 0.082 |
| ACUUAGCAAUAUUACGGGAU | -2.08 ± 0.11 | -0.352 ± 0.098 |
| ACUUAGCAAUAUUACGGGUU | -3.42 ± 0.19 | -3.29 ± 0.3 |
| ACUUAGCAAUAUUACGUAAG | -0.131 ± 0.081 | -0.844 ± 0.1 |
| ACUUAGCAAUAUUACGUACA | -1.84 ± 0.17 | -0.763 ± 0.15 |
| ACUUAGCAAUAUUACGUCUU | -0.647 ± 0.084 | -4.56e-06 ± 0.099 |
| ACUUAGCAAUAUUACGUGGU | -3.62 ± 0.21 | -2.26 ± 0.17 |
| ACUUAGCAAUAUUACGUUCC | -2.16 ± 0.31 | -2.04 ± 0.44 |
| AGAAAGCAAUAUUACGACGA | -0.322 ± 0.13 | 0.0397 ± 0.12 |
| AGAAAGCAAUAUUACGAUUU | -0.00992 ± 0.078 | 0.286 ± 0.11 |
| AGAAAGCAAUAUUACGCAGA | -2.03 ± 0.14 | -1.72 ± 0.13 |
| AGAAAGCAAUAUUACGCGGU | -3.13 ± 0.17 | -1.92 ± 0.21 |
| AGAAAGCAAUAUUACGCUGC | -2.38 ± 0.2 | -1.52 ± 0.23 |
| AGAAAGCAAUAUUACGCUUA | -1.63 ± 0.11 | -0.632 ± 0.087 |
| AGAAAGCAAUAUUACGGAAG | -2.64 ± 0.19 | -1.71 ± 0.22 |
| AGAAAGCAAUAUUACGGAGU | -2.55 ± 0.11 | -1.11 ± 0.11 |
| AGAAAGCAAUAUUACGGGCG | -0.886 ± 0.1 | -0.328 ± 0.12 |
| AGAAAGCAAUAUUACGGUAA | -2.66 ± 0.25 | -0.265 ± 0.14 |
| AGAAAGCAAUAUUACGGUCU | -1.11 ± 0.082 | -0.58 ± 0.09 |
| AGAAAGCAAUAUUACGUAAU | -1.6 ± 0.087 | -1.27 ± 0.12 |
| AGAAAGCAAUAUUACGUUGA | -2.09 ± 0.14 | -1.23 ± 0.14 |
| AGAAAGCAAUAUUACGUUGU | -4.11 ± 0.14 | -1.88 ± 0.099 |
| AGACAGCAAUAUUACGAAAU | -2.88 ± 0.17 | -1.43 ± 0.14 |
| AGACAGCAAUAUUACGAAUA | -2.38 ± 0.24 | -1.62 ± 0.19 |
